# Assay results taken from patent US7078174B1, “Screening methods using SOCS box-containing peptides” (The Walter & Eliza Hall Institute of Medical Research, priority 1998, dated 2006).
# Key:
# elongins B and C = target: T1, elongins B and C (Mus musculus, UniProt P62869+P83940); test: Co-transfection of 293T cells with SOCS box proteins and elongins B and C, co-immunoprecipitation; assay type: binding; details: anti-myc immunoprecipitation, anti-FLAG Western blot
# T1 construct: expressed in transfected cells; host or cells: 293T human fibroblast cell line, vector pEF-BOS
# Excerpt: The cDNAs encoding mouse SOCS-1, SOCS-3, WSB-1, SSB-1, ASB-1, have been described previously (1,8). Constructs in pEF-FLAG1 encoding these proteins, with or without the SOCS box, with an N-terminal FLAG epitope tag (DYKDDDDK) (SEQ ID NO:1) were generated by PCR essentially as described (8) (found at http://www.wehi.edu.au/willson vectors). DNA fragments encoding mouse elongins B and C were amplified using PCR from a 17-day embryo cDNA lambda library (Clontech ML5014t) and were expressed with N-terminal FLAG or myc (DQKLISEEDL) (SEQ ID NO:2) epitope tags, respectively, using the mammalian expression vector pEF-BOS.
# The murine monocytic leukemic cell line, M1, and the 293T human fibroblast cell line were maintained and transfected as described (8).
# (§1) Proteins were immunoprecipitated with anti-myc (9E10; WEHI) and protein A-Sepharose or anti-FLAG antibody conjugated to Sepharose (KM5-IC7; WEHI) and separated by sodium dodecyl sulphate-polyacrylamide gel electrophoresis (SDS-PAGE) (Biorad, Hercules, Calif.) under reducing conditions. Proteins were then electrophoretically transferred to PVDF-Plus membranes (Micron Separations Inc. WestBorough, Mass.) and Western blotted as described (8).
# [1] = target: T2, endogenous elongins B and C (Mus musculus, UniProt P62869+P83940); test: Interaction of FLAG-tagged SOCS-1 with endogenous elongins in M1 cells (anti-FLAG resin, Western blot); assay type: binding, murine; details: M1 cells stably expressing FLAG-tagged protein, anti-FLAG immunoprecipitation
# T2 construct: endogenous in cells; host or cells: M1 murine monocytic leukemic cells
# Procedure: Two liters of M1 cells stably expressing either full-length SOCS-1 or SOCS-1 lacking SOCS box (with N-terminal FLAG epitopes) were grown in DME containing 5% bovine calf serum, 10 μg/ml puromycin and 50 ng/ml murine IL-6. The cells were harvested and incubated in 20 ml of culture media containing 10 μM proteasome-specific inhibitor, N-acetyl-L-leucinyl-L-leucinyl-norleucinal (LLnL; Sigma, St. Louis, Mo.) for 30 min at 37° C. The cells were lysed in 14 ml of lysis buffer supplemented with protease inhibitors (Complete Cocktail tablets), 1 mM PMSF, 1 mM Na3VO4, 1 mM NaF and 10 μM LLnL. Total cell lysates were centrifuged at 15,000 rpm (SS34 rotor) for 15 min at 4° C. and the clarified supernatants incubated with 0.3 ml of M2 anti-FLAG antibody resin for 3 h at 4° C. Resin was then washed with 10 ml of lysis buffer and the bound proteins were eluted with 6×150 μl of 100 μg/m FLAG peptide in lysis buffer.
# as §1
# [2] = test system: elongin B, elongin C, cullin 2, JAK1, gp130; test: Analysis of proteins interacting with SOCS-1 in unstimulated M1 cells (anti-FLAG affinity column, Western blot); assay type: binding, murine; details: 10^9 unstimulated M1 cells, anti-FLAG affinity column eluate
# Excerpt: The inventors passed lysates from 10^9 unstimulated M1 cells expressing FLAG-tagged SOCS-1 through an anti-FLAG affinity column which was then eluted with FLAG peptide. The eluate was then subjected to SDS-PAGE and the proteins were Western blotted. The blot was then probed with anti-FLAG antibodies to confirm the presence of SOCS-1 and with a range of antibodies against proteins thought to interact with SOCS-1 (FIG. 7). […] To determine whether proteins in this complex interact directly or indirectly with SOCS-1, or whether all the proteins can be found together in a single complex, or whether separate complexes are, for example, formed between SOCS-1, JAK-1 and gp130 on one hand and between SOCS-1, elongin B and C and cullin-2, is addressed in part by performing the primary immunoprecipitation using a different antibody.
# Further, the nature of the complex is analyzed by repeating experiments using a mutant SOCS protein which lacks one or more domains. In the case described above, the inventors have performed an identical analysis using M1 cells expressing a FLAG-tagged mutant of SOCS-1 lacking the SOCS box. […] This type of experiment addresses whether interactions are direct or indirect. Further analysis involves approaches of the type described below.
# T1 sequence (P83940 whole entry): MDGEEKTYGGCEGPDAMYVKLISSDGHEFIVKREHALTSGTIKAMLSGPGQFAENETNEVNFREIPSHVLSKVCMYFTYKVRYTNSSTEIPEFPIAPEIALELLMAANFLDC
# T1 sequence (P62869 whole entry): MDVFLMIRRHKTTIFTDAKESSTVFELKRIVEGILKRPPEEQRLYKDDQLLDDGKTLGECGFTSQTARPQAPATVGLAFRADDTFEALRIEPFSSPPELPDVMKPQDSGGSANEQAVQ
# T2 sequence (P83940 whole entry): as the sequence (P83940 whole entry) above
# T2 sequence (P62869 whole entry): as the sequence (P62869 whole entry) above
Molecule,co-immunoprecipitation with elongin C (and elongin B) (elongins B and C),association with endogenous elongins B and C [1],"complex formation with elongin B, elongin C, cullin 2, JAK1 and gp130 [2]"
SSB-1: N-terminally FLAG-tagged SSB-1 protein transfected into 293T fibroblasts (protein) DYKDDDDKMGQKVTGGIKTVDMRDPTYRPLKQELQGLDYCKPTRLDLLLDMPPVSYDVQLLHSWNNNDRSLNVFVKEDDKLIFHRHPVAQSTDAIRGKVGYTRGLHVWQITWAMRQRGTHAVVGVATADAPLHSVGYTTLVGNNHESWGWDLGRNRLYHDGKNQPSKTYPAFLEPDETFIVPDSFLVALDMDDGTLSFIVDGQYMGVAFRGLKGKKLYPVVSAVWGHCEIRMRYLNGLDPEPLPLMDLCRRSVRLALGKERLGAIPALPLPASLKAYLLYQ,found to co-immunoprecipitate along with elongin B with elongin C,–,–
WSB-2: N-terminally FLAG-tagged WSB-2 protein transfected into 293T fibroblasts (protein) DYKDDDDKMEAGEEPLLLAELKPGRPHQFDWKSSCETWSVAFSPDGSWFAWSQGHCVVKLVPWPLEEQFIPKGFEAKSRSSKNDPKGRGSLKEKTLDCGQIVWGLAFSPWPSPPSRKLWARHHPQAPDVSCLILATGLNDGQIKIWEVQTGLLLLNLSGHQDVVRDLSFTPSGSLILVSASRDKTLRIWDLNKHGKQIQVLSGHLQWVYCCSISPDCSMLCSAAGEKSVFLWSMRSYTLIRKLEGHQSSVVSCDFSPDSALLVTASYDTSVIMWDPYTGERLRSLHHTQLEPTMDDSDVHMSSLRSVCFSPEGLYLATVADDRLLRIWALELKAPVAFAPMTNGLCCTFFPHGGIIATGTRDGHVQFWTAPRVLSSLKHLCRKALRSFLTTYQVLALPIPKKMKEFLTYRTF,found to co-immunoprecipitate along with elongin B with elongin C,–,–
full-length SOCS-1: N-terminally FLAG-tagged full-length mouse SOCS-1 stably expressed in M1 cells (protein) DYKDDDDKMVARNQVAADNAISPAAEPRRRSEPSSSSSSSSPAAPVRPRPCPAVPAPAPGDTHFRTFRSHSDYRRITRTSALLDACGFYWGPLSVHGAHERLRAEPVGTFLVRDSRQRNCFFALSVKMASGPTSIRVHFQAGRFHLDGSRETFDCLFELLEHYVAAPRRMLGAPLRQRRVRPLQELCRQRIVAAVGRENLARIPLNPVLRDYLSSFPFQI,–,associated with bound elongins B and C,"capable of forming a complex with elongin B and elongin C, cullin 2, as well as JAK1 and gp130"
